In the nanobody polyreactivity screen of Harvey et al. (2022):

Experiment: yeast display, Sf9 membrane polyspecificity reagent, FACS + sequencing; frameworks hold sequencing errors
Summary of the method: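 Nanobodies from a synthetic yeast display library (Saccharomyces cerevisiae BJ5465), induced 36–48 hours with galactose, were stained 1 hour at 4 °C with 10% biotinylated, detergent-solubilized Sf9 membrane reagent, enriched on streptavidin microbeads, then FACS-sorted. Anti-HA (expression) and streptavidin (reagent binding) fluorescence set low and high (top ~1%) gates. Polyreactivity labels come from the gate of origin. Genes were colony-PCR amplified, MiSeq 2 × 250 sequenced and filtered by CDR length.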

Row | Sequence | polyreactivity (PSR sort gate)
1 | QVQLVESGGGLVQAGGSLSLSCAASGSTFVPYAMGWYRQAPGKERELVAAISSTGGSTYYADSVKGRFTISRDNAKNTVYLQMNSLKAEDTAVYYCNALAKIRYGQINKGYYWGQGTQVTVSS | high polyreactivity
2 | QVQLGESGGGLVQAGGSLRLSCAASGLILYGYAMGLYRPAPGKERELVATITIGGSTYYADSVKGRFTISRDNAKNTVYLQMNRLNPEDTAVYYCAAEDTLAGSVARFGEYDYWGQGSQVTVSS | low polyreactivity
3 | QVQLVESGGGLVQAGGSLRLSCAASGSIFVYNAMGWYRQAPGKERELVAAISSTGGSTYYADSVKGRFTISRDNAKNTVYLQMNSLKPEDTAVYYCARQGRYTRGDYWGQGTQVTVSS | high polyreactivity
4 | QVQLQESGGGLVQAGGSLRLSCAASGSIFKVVDMGLYRQAPAKEREFVATIGEGGNTYYADSVKGRFTISRDNAKNTVYLQMHSLKPEDTAVYFYAVVLGTSYRYTYWGQGTQVTVSS | low polyreactivity
5 | QVQLVESGGGLVQAGGSLRLSCAASGFIFSYNAMGWYRQAPGKERELVASISRRSGITYYADSVKGRFTISRDNAKNTVYLQMNSLKPEDTAVYYCAVTQNSKSTKIRPDQGDYWGLGTQVTVSS | high polyreactivity
6 | QVQLVESGGGLVQAGGSLRLSCAASGRIIGFYAMGRYRQAPGKERELFAAINTGGGTNYADSVKGRFTISRDNAKNTVYLQMNSLKPEDTAVYYCAARTYDYRARHKVGYWGQGTQVTVSS | high polyreactivity
7 | QVQLVESAGGLVQAGGSLRLSCAASGLTFSIYALGWYRQAAGKERELVAAITGRGGRTYYADSVKGRFPISRDNAKNTVYLQMNTLKPDDTAVYYCAARYRGTDFDYWGQGTQVTVSS | high polyreactivity
8 | QVQLVESGGGLVQAGGSLRLICAASGLIFYDNMGWYRQAPGKERELVAAISSSGGSTSYADSVKGRFTISRDNAKNTVYLQMNSLKPEDTAVYYCAADSYPAYLGFVGFDYWGQGTQVTVSS | low polyreactivity
9 | QVQHVESGVGLVQAGGSLRLSSAASGRTFSDNAMGWYRQAPGNERELVAAISRSGGRTYYADSVKGRFTISRDNAKNTVYLQMNSLKPEDTAVYYCAAAPSVSGTRLYEYWGQGTQVTVSS | high polyreactivity
10 | QVQHVESGGGLVQAGGGLRISCAASGSIFHVNAMGWSRLAPGKERELVAGISDGGSTYYADSVKGRFTFSRDTAKHTVYLQLNSLKPEDTAVYYSGAECEQWYSYVLSYDWEYDYWGQGTQVTVSS | low polyreactivity
11 | QVQLVESGGGLVQAGGSLRLSCAASGSIFGYYAMGWYIQAPGKERELVAAISWSGGSTYYADSVKGRFTISRDNAKNTVYLQMNSLKPEDTAVYYCNAYTRRGGHDYWGQGTQVTVSS | high polyreactivity
12 | QVQLVESGGGLVQAGGSLRLSCAASGRTFWWYAMGWYRQAPGKERELVAAITWSTGITFYADSVKGRFTISRDNAKNTVYLQMNILKPEDTAVYYCAADTGTFFGGFDYWGQGTQVTVSS | high polyreactivity
13 | QVQLVESGGGLVLAGGSLRLSCAASGSILGTYAMGWYRQAPGKERELVARISRGGSTNYADSVKGRFTISRDNAKNTVYLQMNSLKPEDTAVYYCAKRLYLPESWRYYYWGQGTQVTVSS | high polyreactivity
14 | QVQLVESGGGLVQAGGSLRLSCAASGSTFSKYAMGWYRQAPGKERELVAAITWRASTYYADSVKGRFTISRDNAKNTVYLQMNSLKPEDTAVYYCAVRQSQRGGTSSNTSNDYWGQGTQVTVSS | high polyreactivity
15 | QVQLVESGGGLVQAGGSLRLSCAASGRTFRLNAMGWYRQAPGKERELVAAITRGGRTNYADSVKGRFTISRDNAKNTVYLQMNSLKPEDTAVYYCAARYVERHTDYYYWGQGTQVTVSS | low polyreactivity
16 | QVQLVESGGGLVQAGGSLRLSCAASGRTFSYYAMGWYRQAPGKERELVAAISQRGGSTYYADSVKGRFTISRDNAKNTVYLQMNSLKPEDTAVYYCAVLVSRYRYRVLDDYWGQGTQVTVSS | high polyreactivity
17 | QDQLVESGGGLVQAGGSLRLSCAASGSTFVKYAMGWYRQAAGTERELVASITKRGGSTYYADSVKGRFTISRDKAKNTVYLQMNSLKPEDTAVYYCNAARGLYNAPKYGSIGFDYWGQGTQVTESS | high polyreactivity
18 | QVQLVESGGGLVQAGGSLRLSCAASGSTFTWNAMGWYRQAPGKERELVAAISGDGGSTYYADSVKGRFTISRDNAKNTVYLQMNSLKPEDTAVYYCAASSAHIFSYRYNFWGQGTQVTVSS | low polyreactivity
19 | QVQLVESVGGLVQAGGSLRLSCSASGSIFWYNAMGWYRQAPGKERELVAAISRGGSTKYADSVKGRFTISRDNAKNTVYLQMNSLKPEDTAVYYCAARYYRSSQGWTYDYWGKGTQVTVSS | low polyreactivity
20 | QVQLVESGGGLVQAGGSLRLSCAASGRTFGYNAMGWYIQAPGKERELVAAINWSGASTYYADYVKGRFTISRDNAKNTVYLQMNSLKPEDTAVYYCAADYSYIYGFDYWGQGTQVTVSS | low polyreactivity
21 | QVQLVESWGGLVQAGGSLRLSCAASGRIFKTYAMGWYRQAPGNEREFFAAITSSGGSTYYADSVKGRFTISRDHAKNTVYLQKNSLNPEDTAVYYCNAGSLHRRYYYEGDYWGQGTQVTVSS | high polyreactivity
22 | QVQLVESGGGLVQAGGSLRLSCAASGRIFERYAMGWYRQAPGKERELVAAISYRGGRTYYADSVKGRFTISRDNAKNTVYLQMNSLKPEDTAVYYCAAVEVRRVADYGFGLLDYWGQGSQVTVSS | high polyreactivity

Row | Sequence | polyreactivity (PSR sort gate)
23 | QVQLVESGGGLVQAGRSLRLSCAASGITFESYAMGWYRQAPGKEREFVAAISRSSGSTYYADSVKGRFTISRDNAKNTVYLQMNSLKPEDTAVYYCATRSFRDDGFGRYYYWGQGTLVTVSS | high polyreactivity
24 | QVQLVESGGGLVQAGGSLRLSFAATGRICSPYAMGWYRQAPGKERELVAAISYDDGITYYADSVKGRFTISRDNATNTVYLQMNSLTPEDTAVYYCAADSVTRPAGDYWGQGTQVTVSS | low polyreactivity
25 | QVQLVESGGGLVQAGGSLRLSCAASGSTIVYYAMGWYRQAPGKERELVAAINYSSGSTYYADSVKGRFTISRDNSKNTVYLQMNSLKPEDTAVYYCATDLLYYQYYSEYDYWGQGTQVTVSS | high polyreactivity
26 | QVQLVESGGGLVQAGGSLRLSCAASGFTFGIYAMGWYRQAPGKERELVAAITKGGGSTYYADSVKGRFTISRDNAKNTVYLQMNSLKPEDTAVYYCAARRVSERRVGYWGQGTQVTVSS | high polyreactivity
27 | QVQLVESGGGLVQAGGSLRLSCAASGTIFGKYAMGWYRQAPGKERELDAAISRAGGRTYYADSVKGRFTISRDNAKNTVYLQMNSLIPEDTAVYYCNAGNLHSGGQRWNLYYWGQCTQVTVSS | high polyreactivity
28 | QVQLVESGGGLVQAGGSLRLSCAASGFTFWTYAMGWYRQAPGKERELVAAITGIGGSTYYADSVKGRFTISRDNAKNTVYLQMNSLKPEDTAVYYCAARYQATYPSMGYWGQGTQVTVSS | low polyreactivity
29 | QVQLVESGGGLVQAGGSLRLSCAASGSIFYYYAMGWYRQAPGKERELVASISSSGSTNYADSVKGRFTISRDNAKNTVYLLMKRLKPEDTAVYYCYADLSLGSYYSYYAYNSWGQGTQVTVSS | low polyreactivity
30 | QVQLVESGGGLVQAGGSLRLSCAASRRIFGQNVMGWYRQAPGKERELVAAITSAGRTYYADSVKGRFTISRDNAKNTVYLQMNSLKPEDTAVYYCAAYVRRGFDWGHGTQVTVSS | high polyreactivity
31 | QVQLVESGGGLVQAGGSLRLSCAASGFIFRRYAMGWYRQAPGKERDLVAAIRSDRSTNYADSVKGRFTISLDNAKNTVYLQMNSLKPEDTAVYYCARPYRSHYGWGVRGFDYWGQGTQVTVSS | high polyreactivity
32 | QVQLVESGGGLVQAGGSLRLSCAASGRTFGYYAMGWYRQAPGKERELVAAISNSGGRTYYADSLKGRFTISRDNAKNTVYLQMNSLKPEDTAVYYCAAVVSYRFDYWGQGTQVTVSS | high polyreactivity
33 | QVHLVESGGCLVQARGSLRLSCAASGRTIQLYAMGWYRHPHGKVMELVAAITWSSGRTYYADSVKGRFTISRDNANNTVYLQMNRLKQEDTAVYYCNAPRGGRNTVYYWGQGTQVTVSS | high polyreactivity
34 | QVQLVESGGGLVQSGGSLRLSCAASGFIFLNYAMGWYRQAPGKERQLVAAITSGGNTTYADSVKGRFTISRDNAKNTVYLQMNSLKPEDTAVYYCAAEWASRYAVFWAYPKYDYWGQGTQVTVAS | low polyreactivity
35 | QVQLVESGGGLVQAGGSLRLSCAASGSIFSVYAMGWYRQAPGKERELVAAITRGGNTYYADSVKGRFTISRDNAKNTVYLQMNSLKPEDTAVYYCNAGPYGRFYYRGLGYWGQGTQVTVSS | low polyreactivity
36 | QVQLVESGGGLVQAGGSLRLSCAATGSIFDLNSMGWYRQAPGKEREVVAAISSGGGTYYADSVKGRFTISRDNANNTVFLQMNSLKPEDTAVYYCIRVTYRSRGRDYWGQGNQVTVSS | high polyreactivity
37 | QVQLVESGGGLVQPGGSLRLSCAASGFIFYYYAMGWYRQAPGKERELVAVLTESGSSTYYADSVKGRFTISRDNAKNTVYLQMNSLKPEDTAVYYCNADFWPYTGKYDYWGQGTQVTVSS | low polyreactivity
38 | QVQLVESGGGLVQAGGSLRLICAASGRNFNHYAMGWYRQAPGKERELVAGITISCGSTYYADSVKGRFTISRDNSKNTVSLQINSLKPEVTAVYYCNAVYDYYRQSKWSMDYWGQGTQVTVSS | low polyreactivity
39 | QVQLVESGGGLVQAGGSLRLSCAASGRIFSLYAMGWYRQAPGKERELVAAISRGGSTYYADSVKGRFTISRDNAKNTVYLQMNSLKPEDTAVYYCAAAPDYRAEYDYWGQGTQVTVSS | low polyreactivity
40 | QVQLVESGGGLVQAGGSLRLSCAASGSILNNYAMGWYRQAPGKERELVAAISSSGGTNYADSVKGRFTISRDNAKNTVYLQMNSLKPEDTAVYYCNADVLDGGYDYWVQGTQVTVSS | low polyreactivity
41 | QVHLVESGGGLVQAGGILRLSCAASGRTFRRYAMGWYRQAPGKERELVAVISGGGTYYADSVKGRFTISRDNAKNTVYLQMNSLKPEDTAVYYCNARSYQSARVRGGYWGQGTQVTVSS | high polyreactivity
42 | QVQLVESGGGLVQAGGSLRLSCAASAFILYFNAMGWYRQAPGKESDLVAAISRGDGYTYADSVKGRFTISRDNAKNTVYLLMNRLNPEDTEVYYCNAGLGVVVTLYVGSGYDSWGHGTQVTVSS | low polyreactivity
43 | QVQLVESGGGLVQAGGSLRLSCAASGRTIGYNAMGWYRQAPGKERELVAAITRSAGITYYADSVKGRFTISRDNAKNTVYLQLNSLKPEDTAVYYCNKRVVYRSSLFDYWGQGTQVTVSS | low polyreactivity
